# Experimental data reported in patent US20250262210A1 (TRUSTEES OF COLUMBIA UNIVERSITY IN THE CITY OF NEW YORK, published 2025).
# T1: FBX038 (human, UniProt Q6PIJ6 1-1188, limits assumed)
# T1 construct: Printed with a zero; probably FBXO38
# T1 sequence (looked up): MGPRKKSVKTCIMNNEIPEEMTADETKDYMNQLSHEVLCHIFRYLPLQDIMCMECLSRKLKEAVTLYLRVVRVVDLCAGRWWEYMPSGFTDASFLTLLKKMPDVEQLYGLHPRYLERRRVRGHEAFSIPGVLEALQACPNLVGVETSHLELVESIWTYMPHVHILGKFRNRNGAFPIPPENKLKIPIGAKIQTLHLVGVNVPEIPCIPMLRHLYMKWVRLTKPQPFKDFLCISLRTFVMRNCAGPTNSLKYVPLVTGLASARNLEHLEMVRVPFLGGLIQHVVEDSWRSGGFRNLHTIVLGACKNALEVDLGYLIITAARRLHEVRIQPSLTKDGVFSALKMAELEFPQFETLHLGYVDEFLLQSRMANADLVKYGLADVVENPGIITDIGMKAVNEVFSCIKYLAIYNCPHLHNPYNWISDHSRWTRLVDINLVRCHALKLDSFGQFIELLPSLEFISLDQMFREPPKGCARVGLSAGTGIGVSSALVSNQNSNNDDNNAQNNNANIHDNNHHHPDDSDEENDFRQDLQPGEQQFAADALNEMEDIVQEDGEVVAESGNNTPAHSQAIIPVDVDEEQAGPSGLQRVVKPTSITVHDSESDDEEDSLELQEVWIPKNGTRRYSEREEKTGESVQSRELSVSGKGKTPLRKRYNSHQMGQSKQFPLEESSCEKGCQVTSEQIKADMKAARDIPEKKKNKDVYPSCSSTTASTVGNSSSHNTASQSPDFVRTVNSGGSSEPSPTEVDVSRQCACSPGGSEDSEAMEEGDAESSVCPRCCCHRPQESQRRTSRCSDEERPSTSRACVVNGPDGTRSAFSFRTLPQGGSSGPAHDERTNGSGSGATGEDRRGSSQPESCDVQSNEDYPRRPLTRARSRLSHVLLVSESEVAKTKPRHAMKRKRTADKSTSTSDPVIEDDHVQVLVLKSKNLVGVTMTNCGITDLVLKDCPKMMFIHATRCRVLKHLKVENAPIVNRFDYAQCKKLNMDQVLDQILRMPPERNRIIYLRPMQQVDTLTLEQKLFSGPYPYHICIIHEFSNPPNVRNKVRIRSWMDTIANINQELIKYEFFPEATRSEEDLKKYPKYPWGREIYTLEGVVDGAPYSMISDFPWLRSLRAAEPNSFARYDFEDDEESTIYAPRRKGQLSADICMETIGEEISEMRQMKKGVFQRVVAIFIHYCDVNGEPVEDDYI
# Tests used:
# [1] = target: T1, FBX038; test: IP/MS, LZTR1 wild type-FLAG, U87
# Procedure, shortened: (§1)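 Read-out: spectral counts from LC-MS/MS (Orbitrap Fusion) after MaxQuant identification. Variable modifications were Met oxidation, protein N-terminal acetylation and N/Q deamidation.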
# [2] = target: ARFGEF1 (human, UniProt Q9Y6D6 1-1849); test: IP/MS, LZTR1 wild type-FLAG, U87
# Procedure, shortened: as §1
# [3] = target: AXL (human, UniProt P30530 26-894, limits assumed); test: IP/MS, LZTR1 R810W-FLAG, U87; spectral counts >2-fold against wild type
# Experimental: (§2) Lysates were immunoprecipitated with FLAG affinity matrix and eluted with FLAG peptide. […] Protein gel slices were excised and in-gel digestion performed as previously described (83), with minor modifications. Gel slices were washed with 1:1 A cetonitrile and 100 mM ammonium bicarbonate for 30 min then dehydrated with 100% acetonitrile for 10 min until shrunk. The excess acetonitrile was then removed and the slices dried in speed-vacuum at room temperature for 10 min. Gel slices were reduced with 5 mM DTT for 30 min at 56° C. in an air thermostat, cooled down to room temperature, and alkylated with 11 mM IAA for 30 min with no light. Gel slices were then washed with 100 mM of ammonium bicarbonate and 100% acetonitrile for 10 min each. Excess acetonitrile was removed and dried in a speed-vacuum for 10 min at room temperature and the gel slices were re-hydrated in a solution of 25 ng/μl trypsin in 50 mM ammonium bicarbonate for 30 min on ice and digested overnight at 37° C. in an air thermostat. Digested peptides were collected and further extracted from gel slices in extraction buffer (1:2 ratio by volume of 5% formic acid:acetonitrile) at high speed, shaking in an air thermostat. […] The following modifications were used for protein identification and quantification: oxidation of methionine (M), acetylation of the protein N-terminus, and deamination for asparagine or glutamine (NQ). […]
# [4] = target: T2, EGFR (human, UniProt P00533 25-1210); test: as above
# T2 construct: also called epidermal growth factor receptor
# Experimental: as §2
# ARFGEF1, sequence (Q9Y6D6 whole entry): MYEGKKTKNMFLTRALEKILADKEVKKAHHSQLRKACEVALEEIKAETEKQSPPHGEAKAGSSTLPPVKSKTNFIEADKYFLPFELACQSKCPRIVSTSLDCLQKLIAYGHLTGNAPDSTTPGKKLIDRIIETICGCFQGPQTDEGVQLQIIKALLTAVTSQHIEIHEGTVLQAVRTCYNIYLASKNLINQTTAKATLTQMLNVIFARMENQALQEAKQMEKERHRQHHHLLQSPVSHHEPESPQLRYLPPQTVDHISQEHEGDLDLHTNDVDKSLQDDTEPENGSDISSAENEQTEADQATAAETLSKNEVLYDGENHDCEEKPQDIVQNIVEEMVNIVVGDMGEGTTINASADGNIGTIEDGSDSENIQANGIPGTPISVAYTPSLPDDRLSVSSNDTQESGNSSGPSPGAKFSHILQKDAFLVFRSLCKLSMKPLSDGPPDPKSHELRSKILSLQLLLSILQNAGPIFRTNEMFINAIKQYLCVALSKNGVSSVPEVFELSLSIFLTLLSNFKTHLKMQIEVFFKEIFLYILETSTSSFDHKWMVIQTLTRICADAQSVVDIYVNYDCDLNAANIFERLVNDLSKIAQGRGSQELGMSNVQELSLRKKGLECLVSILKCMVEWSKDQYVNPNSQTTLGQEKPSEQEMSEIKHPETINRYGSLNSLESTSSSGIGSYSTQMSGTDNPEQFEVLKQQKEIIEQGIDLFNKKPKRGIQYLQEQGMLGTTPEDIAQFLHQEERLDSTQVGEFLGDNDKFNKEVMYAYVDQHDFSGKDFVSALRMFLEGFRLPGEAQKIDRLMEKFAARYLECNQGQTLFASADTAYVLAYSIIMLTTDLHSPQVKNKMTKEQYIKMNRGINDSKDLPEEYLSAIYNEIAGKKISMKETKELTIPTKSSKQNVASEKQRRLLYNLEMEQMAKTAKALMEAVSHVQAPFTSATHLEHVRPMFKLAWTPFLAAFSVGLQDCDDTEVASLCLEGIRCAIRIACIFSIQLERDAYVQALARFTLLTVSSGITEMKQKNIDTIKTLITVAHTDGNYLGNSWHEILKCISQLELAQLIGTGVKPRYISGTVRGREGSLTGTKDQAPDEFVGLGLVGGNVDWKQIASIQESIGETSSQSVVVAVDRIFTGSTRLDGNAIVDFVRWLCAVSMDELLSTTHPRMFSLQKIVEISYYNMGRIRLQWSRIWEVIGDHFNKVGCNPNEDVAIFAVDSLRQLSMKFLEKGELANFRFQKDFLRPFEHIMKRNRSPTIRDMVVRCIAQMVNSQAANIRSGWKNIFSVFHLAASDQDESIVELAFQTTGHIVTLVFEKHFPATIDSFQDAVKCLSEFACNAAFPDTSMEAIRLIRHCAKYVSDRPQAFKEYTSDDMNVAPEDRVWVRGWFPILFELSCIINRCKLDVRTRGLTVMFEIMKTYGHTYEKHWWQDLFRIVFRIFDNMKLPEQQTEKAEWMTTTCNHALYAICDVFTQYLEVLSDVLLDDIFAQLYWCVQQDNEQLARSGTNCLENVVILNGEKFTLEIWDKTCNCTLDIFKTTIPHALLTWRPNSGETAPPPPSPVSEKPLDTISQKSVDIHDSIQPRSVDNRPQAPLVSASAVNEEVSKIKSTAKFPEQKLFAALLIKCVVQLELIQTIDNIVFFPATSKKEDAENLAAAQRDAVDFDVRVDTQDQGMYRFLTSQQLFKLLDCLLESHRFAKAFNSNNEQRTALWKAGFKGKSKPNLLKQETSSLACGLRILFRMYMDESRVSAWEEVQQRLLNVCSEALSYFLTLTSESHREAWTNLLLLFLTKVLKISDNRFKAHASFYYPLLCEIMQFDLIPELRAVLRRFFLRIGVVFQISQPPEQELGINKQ
Binder,binding result [1],binding result [2],binding result [3],binding result [4]
"LZTR1-FLAG (other, human, UniProt Q8N653 1-840, looked up, Expressed in HEK 293T, HeLa or U87 cells; used as cell lysate; also called LZTR1 wild type-FLAG; LZTR1 WT; not shown: FLAG tag at the C-terminus) MAGPGSTGGQIGAAALAGGARSKVAPSVDFDHSCSDSVEYLTLNFGPFETVHRWRRLPPCDEFVGARRSKHTVVAYKDAIYVFGGDNGKTMLNDLLRFDVKDCSWCRAFTTGTPPAPRYHHSAVVYGSSMFVFGGYTGDIYSNSNLKNKNDLFEYKFATGQWTEWKIEGRLPVARSAHGATVYSDKLWIFAGYDGNARLNDMWTIGLQDRELTCWEEVAQSGEIPPSCCNFPVAVCRDKMFVFSGQSGAKITNNLFQFEFKDKTWTRIPTEHLLRGSPPPPQRRYGHTMVAFDRHLYVFGGAADNTLPNELHCYDVDFQTWEVVQPSSDSEVGGAEVPERACASEEVPTLTYEERVGFKKSRDVFGLDFGTTSAKQPTQPASELPSGRLFHAAAVISDAMYIFGGTVDNNIRSGEMYRFQFSCYPKCTLHEDYGRLWESRQFCDVEFVLGEKEECVQGHVAIVTARSRWLRRKITQARERLAQKLEQEAAPVPREAPGVAAGGARPPLLHVAIREAEARPFEVLMQFLYTDKIKYPRKGHVEDVLLIMDVYKLALSFQLCRLEQLCRQYIEASVDLQNVLVVCESAARLQLSQLKEHCLNFVVKESHFNQVIMMKEFERLSSPLIVEIVRRKQQPPPRTPLDQPVDIGTSLIQDMKAYLEGAGAEFCDITLLLDGHPRPAHKAILAARSSYFEAMFRSFMPEDGQVNISIGEMVPSRQAFESMLRYIYYGEVNMPPEDSLYLFAAPYYYGFYNNRLQAYCKQNLEMNVTVQNVLQILEAADKTQALDMKRHCLHIIVHQFTKVSKLPTLRSLSQQLLLDIIDSLASHISDKQCAELGADI",binds,binds,,
"LZTR1 R810W-FLAG (other, human, UniProt Q8N653 1-840, looked up, Stably expressed in U87 cells by lentivirus; also called LZTR1-FLAG-R810W; LZTR1 RW; not shown: FLAG tag) MAGPGSTGGQIGAAALAGGARSKVAPSVDFDHSCSDSVEYLTLNFGPFETVHRWRRLPPCDEFVGARRSKHTVVAYKDAIYVFGGDNGKTMLNDLLRFDVKDCSWCRAFTTGTPPAPRYHHSAVVYGSSMFVFGGYTGDIYSNSNLKNKNDLFEYKFATGQWTEWKIEGRLPVARSAHGATVYSDKLWIFAGYDGNARLNDMWTIGLQDRELTCWEEVAQSGEIPPSCCNFPVAVCRDKMFVFSGQSGAKITNNLFQFEFKDKTWTRIPTEHLLRGSPPPPQRRYGHTMVAFDRHLYVFGGAADNTLPNELHCYDVDFQTWEVVQPSSDSEVGGAEVPERACASEEVPTLTYEERVGFKKSRDVFGLDFGTTSAKQPTQPASELPSGRLFHAAAVISDAMYIFGGTVDNNIRSGEMYRFQFSCYPKCTLHEDYGRLWESRQFCDVEFVLGEKEECVQGHVAIVTARSRWLRRKITQARERLAQKLEQEAAPVPREAPGVAAGGARPPLLHVAIREAEARPFEVLMQFLYTDKIKYPRKGHVEDVLLIMDVYKLALSFQLCRLEQLCRQYIEASVDLQNVLVVCESAARLQLSQLKEHCLNFVVKESHFNQVIMMKEFERLSSPLIVEIVRRKQQPPPRTPLDQPVDIGTSLIQDMKAYLEGAGAEFCDITLLLDGHPRPAHKAILAARSSYFEAMFRSFMPEDGQVNISIGEMVPSRQAFESMLRYIYYGEVNMPPEDSLYLFAAPYYYGFYNNRLQAYCKQNLEMNVTVQNVLQILEAADKTQALDMKRHCLHIIVHQFTKVSKLPTLWSLSQQLLLDIIDSLASHISDKQCAELGADI",,,binds,binds
